The nanobody polyreactivity screen of Harvey et al. (2022)

Test: yeast display, Sf9 membrane polyspecificity reagent, FACS + sequencing; frameworks hold sequencing errors
In short: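 Galactose-induced (36–48 hours) yeast carrying a synthetic nanobody display library were exposed to 10% biotinylated, detergent-solubilized Sf9 membrane reagent at 4 °C for 1 hour. FACS followed streptavidin microbead enrichment, using low and high (top ~1%) gates for expression (anti-HA) and reagent binding (streptavidin). Colony PCR, MiSeq 2 × 250 sequencing and CDR-length filtering followed. Labels for polyreactivity reflect the gate of origin.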

Sequence | polyreactivity (PSR sort gate)
QDQLVESGGGLVQAGGSLRLSCAASGSTFVANDMGWYRQAPGKERELVASISDGSSTYADSVKGRFTISRDNAKNTVYLQMNSLKPEDTAVYYCAKDGSLDAQSYDYDYWGQGTQVTVSS | low polyreactivity
QVQLVESGGGLVQAGGSLRLSCAASGRISTFYAMGWYRQAPGKERELVAGIRWRGGSTYYADSVKGRFTISRDNAKNTVYLQMNSLKAEDTAVYYCYSMDYWGQGTQVTVSS | high polyreactivity
QVQLVESGGGLVQAGGSLRLSCAASGGTFDVYTMGWYRQAPGKERELVAAIDNGGSTNYADSVKGRFTISRDNAKNTVYLQMNSLKPEDTAVYYCAADEVYLFWGIAEFIYDYWGQGTQVTVSS | low polyreactivity
QVQLQESGGGLVQAGGSLRLSCAASGTFSPLPAMGWYRQAPGKERECVAGNDTGAITNYADSVKGRFTISRDNAKNTVYLQMNSLKPDDTAVYYCAVFPAAYVYYVRYYTYWGQGTQVTVCS | low polyreactivity
QVQLVESGGGLVQAGGSLRLSCAASGFIFVAYAMGWSRQAPGKERELVAAITSSGGRTYYADSVKGRFTISRDNAKNTVYLQMNSLKPEDTAVYYCAARVYRSAKGYNYWGQGTQVTVSS | high polyreactivity
QVQLVESGGGLVQAGGSLRLSCAASGSTFAINAMGWYRQAPGKERELVAAISSSGSTNYADSVKGRFTISRDNAKNTVYLQMNSLIPEDTAVYYCAADRVWGTPQAYVPSQFDYWGQGTQVTVSS | low polyreactivity
QVQLVESGGGIVQAGGSLRLSCAASGSTFRAYVMGWSRPAPGKERELVAAITYRGTSTYYADSVKGRFTISRDNAKYTVYLQMNSLKPEDTAVYYCAARRLYTRGTYDYWGLGTQVTVSS | high polyreactivity
QVQLVESGGGLVQAGGSLRLSCAASGITFDGYAMGWYRQAPGKERELVAAIRSSGGSTYYADSVKGRFTISRDNAKNTVYLQMNSLKPEDTAVYYCATDHAQKFRYRSPREYWGQGTQVTVSS | low polyreactivity
QVQLVESGGGLFQAGVSLRLSCAASGRTLQIYHMGWYRQAPGKERELVAAISSSGGSTYYADSVKGRFTISRDNAKNTVYVQMNSLKAEDTAVYYCAADPRGYGYTRKGYYWGQGTQVTVSS | high polyreactivity
QVQLVESGGGLVLAGGSLRLSCAASGSIFPLYAMGWYRQAPGKERELVAAITGTSSTYADSVKGRFTISRDNAKNTVYLQMNSLKPEDTAVYYCARVGWSWPRREKYNYWGQGTQVTVSS | high polyreactivity
KVQLVESGGGLVQAGGSLRLSCAASGSTFQYYAMGWYRQAPGTERELVAAITSGGSTNYADSVKGRFTISRDNAKNTVYLQMNSLKPEDTAVYYCNADSSGWFPFDYWGQGTQVTVSS | low polyreactivity
QVQLVESGGGLVQAGGSLRLSCAASGYTFSQNAMGWYRQAPGKEREVVAGITTRGTTTYYADSVKGRFTISRDNAKNTVYLQMNSLKPEDTPVYYCAADNSYTDNYWGQGTQVTVSS | low polyreactivity
QVQLVESGGGLVKAGGSLRLSCAASGSIFPDNAMGWYRQAPGKERELVAAISEGSTSTYYADSVKGRFTISRDNAKYTVYLQMNSLKPEDTAVYYCAADYDTGYEYWGQGTQVTVSS | low polyreactivity
QVQLVESGGGLVQAGGSLRLSCAASGNTFFPYTMGWYRQAPGKERELVAAITWSGVSTYYADSVKGRFTISRDNAKNTVYLQMNSLKPEDTAVYYCAAGPGYVRYPRSGVWYVTLYDYWGQGTQVTVSS | high polyreactivity
QVQLVDSGGRLVQAGGSLRLSCAASGFIFGTNAMGWYRQAPGKERELVASISSTGGSTYYADSVKGRCTISRDNAKNTVYLQMNILKPEETAVYYCAADPYPEYIRYLPGVDYSGQGTQVTVSS | low polyreactivity
QVQLVESGGGLVQAGGSLRLSCAASGGIFRPYAMGWYRQAPGKERELVAAITYNGGSTYYADSVKGRFTISRDNAKNTVYLQMNSLKPEDTAVYYCAAVSYSGPYAYEYWGQGTQVTVSS | high polyreactivity

Sequence | polyreactivity (PSR sort gate)
QVHLVESGGGLVQAGGSLRLSCAASGFTFIRNGMGSYRQAPGKERELVAAINSRGGNTYYADSVKGRFTISRDNAKNTVYLQMNSLKPEDTAVYYCNRVVQRWSTQYGYWGQGTQVTVSS | high polyreactivity
QVQLVESVGGLVQAGGSLRLSCAASGNTFRYNTMGWYRQAPGKERELVAVITRRGSSTYYADSVKGRFTISRDNAKNTVYLQMNSLKPEDTAVYYCAAGYGRYGYVYSGYGKWEDYWGQGTQVTVSS | high polyreactivity
QVQLVESGGGLVQAGGSLRLSCAASGLIFYRYAMGWYRQAPAKERELVADITRDSGSTSYADSVKGRFTISRDYAKNTVYLQMNSLKPEDTAVYYCNAGWVYTASGRQYYITYDYWGQGTQVTVSS | high polyreactivity
QVQLVESGGGLVQAGGSLRLSCAASGRTFFDYTMGWYRQAPGKERELVAAITGGDGSTYYADSVKGRFTISRDNAKTTVYLQMNSLKPEDTAVYDCAAEYTRTYWYAAMDYWGQGTQVTVSS | low polyreactivity
QVQLVESGGGLVQAGGSLRLSSAASGRTFGFNPMGWYRQAPGKERELVAAISSSSSSTYYADSVKGRFTISRDNAKNTVYLQINSLKPEDTAVYYCAKQEPYPFGGYYEYDYWGQGTQVTVSS | low polyreactivity
QVQLVESGGGLVQAGGSLRLSCAASGRIIRYYAMGWYRQAPGKERELVAAISKSGGSTYYADSVKGRFTISRDNAKNTVYLQMNSMKREDTAVFFCAAGTSRYVYHSYGKYEYWGQGTQVTVSS | high polyreactivity
QVQLVESGGGLVQAGGSLRLSCAASGSIFHYYTMGWYRQAPGKERELVAGISRSGGSTYYADSVKGRFTISRDNAKNTVYLQMNSLKPEDTAVYYCAAARYPYLYAYGYWGQGTQVTVSS | high polyreactivity
QVQLVESGGGLVQAGGSLRLSCAASGYIFGSYAMGWYSQAPGKERELVATISYRAGRTYYADSVKGRFTISRDNAKNTVDLQMNSLTPEDTAVYYCAADLVIYLEYDYWGQGTQVTVSS | low polyreactivity
QVQLVESGGGLVQAGGSLRISCAASGRTFPGNAMGWYRQAPGKERELVAAISWSGTRTYYADSVKGRFTISRDNAKNTVYLQMNSLKPEDTAVYYCNVVVKGAWDYYPYDYWGQGTQVTVSS | high polyreactivity
QVQLVESGGGLVQARGSLRLSCAASGRIFNYYAMGWYRQAPGKERELVAAISGSGGRTYYADSVKGRFTISRDNAKNTVYLQMNSLKPEDTAVYYCAADGVDGYDYWGLGTQVTVSS | high polyreactivity
QVQLVESAGGLVQAGGSLRLSCHASGLTVRTYDMGWYRQEPGKERELVAAITTGGSTYYADSVKGRFSISRDNAKNTVYLQMNSLKPEDTAVYYCAADFIRYINRLLYDFWGQGTQVTVSS | low polyreactivity
QVQLVESGVGLVQAGGSLRISCAASGRIYRSNAMGWYRQAPGKERELLAAISSNGGSTYYADSVKGRFTISRDNAKNTVYLQMNSLKPEDTAVYYCAARVYYPVRYGYWGQGTQVSVSS | high polyreactivity
QDHLVESGGGLVQAGGSLRLICAANGRTFRRYAMGWYRQAPGKERELVATITSGGSTNYADSVKGRFTISRDNAKNTVYLQMNSLKPQDTAVYYCAARHGESHYDYWGQGTQVTVSS | low polyreactivity
QVQLVESGGGLVQAGGSLRLSCAASGSIFGGYAMGWYRQAPGKERELVAGITYSGDSTYYADSVKGRFTISRDNAKNTVYLQMNSLKPEDTAVYYCNADQRVDHDDFDYWGQGTQVTVSS | low polyreactivity
QVQLVESGGGLVQAGGSLRLSCAASGRTLSFYTMGWYRQAPGKERELVAAISSRTGSTYYADSVKGRFTISRDNAKNTVYLQMNRLKPEDTAVYYCAAASRAFAGSGHYYWGQGTQVTVSS | high polyreactivity
